Measurements published in US20250032630A1, “B7H4 ANTIBODY-DRUG CONJUGATE AND USE THEREOF” (Duality Biologics (Suzhou) Co., Ltd., priority 2022, published 2025).
Numbering of substitutions follows the chain as printed.

Columns and labels:
cynomolgus monkey B7H4 = molecular target: T1, cynomolgus monkey B7H4 (cynomolgus monkey, UniProt A0A2K5U6P5 25-282); test: flow cytometry on cynomolgus monkey B7H4-transfected HEK293T cells, PE anti-human IgG Fc secondary antibody
T1 construct: whole, on cells; also called Monkey B7H4-293T
T1 sequence: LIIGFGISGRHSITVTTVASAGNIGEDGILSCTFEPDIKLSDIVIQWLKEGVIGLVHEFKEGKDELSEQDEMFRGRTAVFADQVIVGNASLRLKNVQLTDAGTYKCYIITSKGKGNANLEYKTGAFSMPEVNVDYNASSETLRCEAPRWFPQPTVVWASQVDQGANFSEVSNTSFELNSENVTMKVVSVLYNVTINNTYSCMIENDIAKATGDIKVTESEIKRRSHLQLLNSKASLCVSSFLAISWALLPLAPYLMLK

human B7-H7 (HHLA2) = molecular target: T2, human B7-H7 (HHLA2) (human, UniProt Q9UM44 23-414); test: flow cytometry on CHO-KI cells stably expressing human B7-H7 (HHLA2), one concentration
T2 construct: whole, on cells
T2 sequence (looked up): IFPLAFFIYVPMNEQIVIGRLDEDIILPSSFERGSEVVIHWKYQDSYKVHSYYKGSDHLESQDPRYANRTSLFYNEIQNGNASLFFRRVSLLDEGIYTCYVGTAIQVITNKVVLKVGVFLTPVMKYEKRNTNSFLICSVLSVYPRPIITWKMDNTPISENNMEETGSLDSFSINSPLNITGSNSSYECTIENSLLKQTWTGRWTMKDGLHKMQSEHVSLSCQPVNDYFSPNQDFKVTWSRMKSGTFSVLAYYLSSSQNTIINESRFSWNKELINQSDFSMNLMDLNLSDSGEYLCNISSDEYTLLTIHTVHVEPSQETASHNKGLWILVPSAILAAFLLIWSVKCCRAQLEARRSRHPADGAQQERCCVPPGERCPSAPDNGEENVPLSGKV

human B7H4 [1] = molecular target: T3, human B7H4 (human, UniProt Q7Z7D3 25-282); test: cell-based or functional assay
T3 sequence (looked up): T1 sequence with I53L, L242F, A252S

mouse B7H4 = molecular target: T4, mouse B7H4 (mouse, UniProt Q7TSP5 25-257); test: flow cytometry on mouse B7H4-transfected HEK293T cells, PE anti-human IgG Fc secondary antibody
T4 construct: whole, on cells; also called Mouse B7H4-293T
T4 sequence (looked up): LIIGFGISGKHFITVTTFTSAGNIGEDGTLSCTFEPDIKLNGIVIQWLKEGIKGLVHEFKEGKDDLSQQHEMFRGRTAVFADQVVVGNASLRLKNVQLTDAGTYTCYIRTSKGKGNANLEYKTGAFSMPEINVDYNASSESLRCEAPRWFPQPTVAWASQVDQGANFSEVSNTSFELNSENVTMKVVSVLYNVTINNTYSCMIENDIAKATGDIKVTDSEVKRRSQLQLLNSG

human B7H4 [2] = molecular target: T3, human B7H4; test: cell-based or functional assay; remark: listed apart in the source

B1: antibody-drug conjugate DB1001-X2 (antibody, DAR 5.4, V domains shown)
VH: QVQLVESGGGVVQPGRSLRLSCAASGFTFRSFGMHWVRQAPGKGLEWVAVISYDASNEYYADSVKGRFIISRDNSKDTLYLQMNSLRAGDTAVYYCAKGGALRWYFAYWGQGTLVTVSS
VL: EIVMTQSPATLSVSPGERATLSCRASQSISSNLGWYQQKPGQAPRLLIYGASTRATGIPARFSGSGSGTEFTLTISSLQSEDFAVYYCQQYRSWPPLTFGGGTKVEIKR
modifications: linker-cytotoxin X2 (payload P-III-30) coupled after TCEP reduction of the antibody; drug-to-antibody ratio (DAR) of 5.4; conjugation residues not stated
notes: also called anti-B7H4 ADC DB1001-X2
EC50 (cynomolgus monkey B7H4): 5.36 nM
binding result (human B7-H7 (HHLA2)): no binding (tested: 100 nM or 300 nM)
Fold over blank control, endocytosis by MDA-MB-468 cells (human B7H4 [1]): 2.4 fold
binding result (mouse B7H4): no binding (tested: highest concentration 100 nM)
IC50 (nM), proliferation inhibition of MX-1 cells with high expression of B7H4 (3D culture, CTG) (human B7H4 [2]): 52.4 nM
IC50 (nM), proliferation inhibition of RL95-2 cells with low expression of B7H4 (3D culture, CTG) (human B7H4 [2]): 69.4 nM
